Source: US20130336983A1 (TRUSTEES OF DARTMOUTH COLLEGE, published 2013)

Target: the molecule itself
Test: NMR spectroscopy of the 20-mer

Protein: LHHILMHLTEKAQEVTRKYQ [20-mer representing residues 120-139 of S14 domain III]
- binding result: binds
